Reference: patent US20250179139A1 (CENTRO DE INMUNOLOG A MOLECULAR, published 2025)

B1: IL-2 variant 1A displayed on phage (S2 library) (other, not shown: large carriers; small tags and cut ends)
chain: TSSSTKKTQLQLEHLLLDLQMILNGINNYKNPKLTRMLTFKFYMPKKATELKHLQCLEEELKPLEEVLNLAQSKNFHFDPHDVVENINVLLLELKGSETTFMCEYADETATIVEFLNRWITFSQSIISTLT
notes: Substitutions are derived from the segment name printed for the fusion protein built from this clone
B2: recombinant extracellular domain of the human IL-2 receptor beta subunit (receptor, UniProt P14784 27-240, looked up)
chain: AVNGTSQFTCFYNSRANISCVWSQDGALQDTSCQVHAWPDRRRWNQTCELLPVSQASWACNLILGAPDSQKLTTVDIVTLRVLCREGVRWRVMAIQDFKPFENLRLMAPISLQVVHVETHRCNISWEISQASHYFERHLEFEARTLSPGHTWEEAPLLTLKQKQEWICLETLTPDTQYEFQVRVKPLQGEFTTWSPWSQPLAFRTKPAALGKDT
notes: extracellular domain; also called beta chain of the IL-2 receptor; beta subunit of the receptor

What was measured:
[1] = biological target: B2; test: phage ELISA; ratio of the signal on the beta subunit extracellular domain to the signal on anti-c-myc antibody 9E10 (display level); anti-M13 antibody-HRP
Procedure: The binding capacity of the new variants to the extracellular domain of the IL-2 receptor beta subunit was assessed by ELISA. For this purpose, plates were coated with the recombinant extracellular domain of the IL-2 receptor beta subunit. The bound phages were detected with an anti-M13 antibody conjugated to horseradish peroxidase. Simultaneously, their binding to a plate coated with the monoclonal antibody 9E10 directed against the c-myc peptide that is fused to the proteins presented on the phages was determined to establish the display levels of each. The ratio between the signals obtained with both coating molecules (relative reactivity) is plotted as a measure of the intrinsic binding capacity of each variant to the beta-subunit.

[2] = biological target: T1, H9/Fc (K35E) fusion protein (human, UniProt P60568 21-153); test: BIAcore (SPR); format not stated
T1 construct: mature; Same format as the other Fc fusions; also called fusion protein based on the H9 superkine
T1 sequence (P60568 other isoform, or with tags, fused parts or gaps K35E K35E limits assumed): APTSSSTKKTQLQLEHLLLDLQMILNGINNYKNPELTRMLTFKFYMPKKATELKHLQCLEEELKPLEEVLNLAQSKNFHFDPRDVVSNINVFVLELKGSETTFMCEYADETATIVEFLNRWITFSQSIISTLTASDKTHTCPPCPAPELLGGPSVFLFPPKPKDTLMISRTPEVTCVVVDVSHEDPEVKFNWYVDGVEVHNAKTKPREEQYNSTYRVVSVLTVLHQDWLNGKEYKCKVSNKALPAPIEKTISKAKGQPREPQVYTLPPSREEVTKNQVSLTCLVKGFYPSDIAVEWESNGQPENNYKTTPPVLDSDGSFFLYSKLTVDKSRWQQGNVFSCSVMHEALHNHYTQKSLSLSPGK

[3] = biological target: T2, IL-2/Fc (K35E) fusion protein (human, UniProt P60568 21-153); test: BIAcore (SPR); format not stated
T2 construct: mature; IL-2 fused to the N-terminal end of human IgG1 Fc; also called fusion protein derived from the original IL-2; human IL-2/Fc fusion protein
T2 sequence (P60568 other isoform, or with tags, fused parts or gaps K35E K35E limits assumed): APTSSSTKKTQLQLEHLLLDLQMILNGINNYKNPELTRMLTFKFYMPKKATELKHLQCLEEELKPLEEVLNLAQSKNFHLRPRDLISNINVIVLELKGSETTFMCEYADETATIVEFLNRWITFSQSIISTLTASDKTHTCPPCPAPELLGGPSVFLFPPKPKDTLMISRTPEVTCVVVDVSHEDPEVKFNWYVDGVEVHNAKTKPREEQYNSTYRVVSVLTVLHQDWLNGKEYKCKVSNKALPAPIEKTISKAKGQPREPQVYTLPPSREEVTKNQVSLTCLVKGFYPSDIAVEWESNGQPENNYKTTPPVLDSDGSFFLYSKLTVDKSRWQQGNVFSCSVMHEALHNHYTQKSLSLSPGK

Row | Binder | binding result [1] | Kd [2] [nM] | koff [2] [s⁻¹] | kon [2] [M⁻¹ s⁻¹] | Kd [3] [nM] | koff [3] [s⁻¹] | kon [3] [M⁻¹ s⁻¹]
1 | B1 | binds | – | – | – | – | – | –
2 | B2 | – | 4.09 | 0.000395 | 97200 | 106 | 0.00326 | 30800
